The record followed here is PMC9668932.

The target of the experiment is heat shock protein HSP 90-beta, full length, His6-tagged (human) (UniProt P08238). The experiment can be described thus: cryo-EM structure; ternary Hsp90-XAP2-AHR complex, co-expressed in Sf9 and co-purified, with indirubin at 5x molar excess; 20 mM Bis-Tris-HCl pH 7.0, 50 mM NaCl, 10 mM KCl, 10 mM MgCl2, 20 mM Na2MoO4, 2 mM BME; global map 2.85 Å, focused map 4.07 Å.

Chain of heat shock protein HSP 90-beta, full length, His6-tagged, P08238 1-724 (natural protein; other documents disagree on this pair) (P08238 whole entry): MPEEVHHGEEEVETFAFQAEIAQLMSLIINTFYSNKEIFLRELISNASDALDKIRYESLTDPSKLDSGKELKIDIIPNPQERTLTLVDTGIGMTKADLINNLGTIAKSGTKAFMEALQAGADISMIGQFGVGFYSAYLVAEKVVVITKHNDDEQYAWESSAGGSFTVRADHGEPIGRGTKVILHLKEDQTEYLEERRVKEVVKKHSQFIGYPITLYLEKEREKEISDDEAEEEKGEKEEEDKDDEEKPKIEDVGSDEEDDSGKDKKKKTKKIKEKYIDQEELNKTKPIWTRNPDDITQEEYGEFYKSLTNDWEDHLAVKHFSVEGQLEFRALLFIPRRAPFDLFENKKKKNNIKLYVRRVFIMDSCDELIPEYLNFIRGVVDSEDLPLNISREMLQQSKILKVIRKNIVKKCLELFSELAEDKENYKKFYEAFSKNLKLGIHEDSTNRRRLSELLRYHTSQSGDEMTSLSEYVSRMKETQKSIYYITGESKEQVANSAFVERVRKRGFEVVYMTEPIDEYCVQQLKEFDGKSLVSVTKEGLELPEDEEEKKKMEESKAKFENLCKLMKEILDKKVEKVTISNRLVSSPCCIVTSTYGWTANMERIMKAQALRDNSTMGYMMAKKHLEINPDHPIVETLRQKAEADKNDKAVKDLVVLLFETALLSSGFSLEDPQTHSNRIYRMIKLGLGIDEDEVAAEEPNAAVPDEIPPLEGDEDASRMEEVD

Consider “heat shock protein HSP 90-beta, full length, His6-tagged, P08238 1-724 (natural protein; other documents disagree on this pair)”, for which the stoichiometry N turned out to be 2.
